Reference: patent publication US20260258115A1 (MAPP BIOPHARMACEUTICAL, published 2026)

Tests used:
[1] = target: RSV F on RSV subtype A virus (mKate-RSV A2) (respiratory syncytial virus A2, UniProt P03420 26-574); assay: cell-based or functional assay
[2] = target: T1, RSV postfusion F (postF), subtype A (respiratory syncytial virus subtype A, UniProt P03420 26-513); assay: BLI
T1 construct: also called Postfusion subtype A; F deltaFP

[3] = target: T2, RSV prefusion F (preF), subtype B (respiratory syncytial virus subtype B); assay: BLI, IgG
T2 construct: also called Prefusion subtype B

[4] = target: RSV F on RSV subtype B virus (mKate-RSV B 18537) (respiratory syncytial virus B 18537, UniProt P13843 26-574); assay: cell-based or functional assay

Row | Binder | Neut IC50 subtype A [1] [µg/mL] | binding result [2] | Kd [3] [nM] | Neut IC50 subtype B [4] [µg/mL]
1 | ADI-19494 (antibody, V domains shown, full-length IgG) VH: QVQLVQSGAEVKKPGSSVKVSCKASGGTFSSYVISWVRQAPGQGLEWMGGIIPIFGTTYYAQKFQDRVTITTDESTSTAYMELSSLRSEDTAVYYCARDLRYRYNAYDGADAFDIWGQGTTVTVSS VL: QSALTQPASVSGSPGQSITISCTGTSSDVGGYNYVSWYQQHPGKAPKLMIFEVSNRPSGVSNRFSGSKSGNTASLTISGLQAEDEADYYCTSYTKSNSVVFGGGTKLTVL | 0.86 | no binding | – | –
2 | ADI-19428 (antibody, V domains shown, full-length IgG) VH: EVQLLESGGGLVKPGGSLRLSCAASGFTFSSYSMNWVRQAPGKGLEWVSSISSSSSYIYYADSVKGRFTISRDNAKNSLYLQMNSLRAEDTAVYYCARDSCSGGSCYSPRFDPWGQGTLVTVSS VL: QSVLTQPPSVSGAPGQRVTISCTGSSSNIGAGYDVHWYQQLPGTAPKLLIYGNSNRPSGVPDRFSGSKSGTSASLAITGLQAEDEADYYCQSYDSTVVFGGGTKLTVL | 3.25 | no binding | 16.7 | –
3 | ADI-19433 (antibody, V domains shown, full-length IgG) VH: EVQLVESGGGLVKPGGSLRLSCAASGFTFSSYSMNWVRQAPGKGLEWVSSISSSSSYIYYADSVKGRFTISRDNAKNSLYLQMNSLRAEDTAVYYCARAPPSVGGWYFDLWGRGTLVTVSS VL: QPVLTQPPSVSGAPGQRVTISCTGSSSNIGAGYDVHWYQQLPGTAPKLLIYGNSNRPSGVPDRFSGSKSGTSASLAITGLQAEDEADYYCQSYDSSLVFGGGTKLTVL | 1.56 | no binding | – | –
4 | ADI-14388 (antibody, V domains shown, full-length IgG; also called Ab 55) VH: EVQLVESGGGVVQPGRSLRLSCAASGFTFSSYPMHWVRQAPGKGLEWVAVISYDGSNKYYADSVKGRFTISRDNSKNTLYLQMNSLRAEDTAVYSCARAQSAAIFDHWGQGTLVTVSS VL: QAVVTQEPSLTVSPGGTVTLTCASSTGAVTSGYYPNWFQQKPGQAPRALIYTTSKRHSWTPARFSGSLLGGKAALTLSGVQPEDEADYYCLLYYGGANWVFGGGTKLTVL | – | no binding | 5.5 | 3.07
5 | ADI-19432 (antibody, V domains shown, full-length IgG) VH: QVQLVQSGAEVKKPGASVKVSCKVSGYTLTELSMHWVRQAPGKGLEWMGGFDPEDGETIYAQKFQGRVTMTEDTSTDTAYMELSSLRSEDTAVYYCATEREEGGYSGYDDAFDIWGQGTMVTVSS VL: not shown | 11 | no binding | – | –
6 | ADI-14334 (antibody, V domains shown, full-length IgG; also called Ab 2) VH: EVQLVESGGGLVKPGGSLRLSCAASGVTVSSYYMTWVRQAPGKGLEFISDISSSSTYTNYADSVKGRFTISRDNAKSSLYLQMNNLRAEDTAVYYCARLGITVTGVGYFDLWGRGTLVTVSS VL: QPGLTQPPSVSGAPGQRVTISCTGSSSNIGAGYDVHWYQQLPGTAPKLLIHDNNNRPSGVPDRFSGSKSGTSASLAITGLQVEDEADYYCQSYDSSLSNYVFGTGTKLTVL | 0.05 | – | 0.622 | 0.11
7 | ADI-19459 (antibody, V domains shown, full-length IgG) VH: QVQLVESGGGLVQPGGSLRLSCAASGFTVSSNYMSWVRQAPGKGLEWVSVIYSGGSTYYADSVKGRFTISRDNSKNTLYLQMNSLRAEDTAVYYCAREALGMDHWYFDLWGRGTLVTVSS VL: SYELMQPPSVSVAPGKTARITCGGNNIGSKSVHWYQQKPGQAPVLVVYDDSDRPSGIPERFSGSNSGNTATLTISRVEAGDEADYYCQVWDSSSDHPVFGGGTKVTVL | 0.05 | – | 1.45 | 0.1
8 | ADI-19488 (antibody, V domains shown, full-length IgG; also called Ab 190) VH: QVQLVQSGAEVKKPGASVKVSCKVSGYTLTELSMHWVRQAPGKGLEWMGGFDPEDGETIYAQKFQGRVTMTEDTSTDTAYMELSSLRSEDTAVYYCATARFLEWLSGTNWFDPWGQGTLVTVSS VL: not shown | – | no binding | 10.7 | 3.38
9 | ADI-14349 (antibody, V domains shown, full-length IgG; also called Ab 17) VH: EVQLVESGAEVKKPGSSVKVSCKASGGTLSSYAFSWVRQAPGQGLEWMGGVIPISATSDYAQKFQGRVTITADESTSTVYMELRSLRSEDTAVYYCARDTRYSSGWFYDYWGQGTLVTVSS VL: not shown | – | no binding | 4.07 | 1.84
10 | ADI-14377 (antibody, V domains shown, full-length IgG; also called Ab 45) VH: EVQLVESGGGVVQPGGSLRLSCAVSGITFSSYGMHWVRQAPGKGLEWVAFIRYDGSNKYYGDSLRGRFTISRDNSKNTLYLQMNSLRAEDTAVYYCAKDAVGIGGYYGLDVWGQGTTVTVSS VL: DIQMTQSPSSLSASVGDRVTITCRASQGIRNDLGWYQQKPGKAPKRLIYAASSLQSGVPSRFSGSGSGTEFTLTISSLQPEDFATYYCLQHNGYPWTFGQGTKVEIK | – | no binding | 5.28 | 2.13
11 | ADI-24827 (antibody, V domains shown, full-length IgG) VH: EVQLVESGGGLVQPGGSLRLSCAASGFTVSSNYMSWVRQAPGKGLEWVSVIYSDGSTYYADSVKGRFTISRHNSKNTLYLQMNSLRAEDTAVYYCARCSTYGDYIDWYFDLWGRGTLVTVSS VL: not shown | 0.02 | no binding | 6.62 | –
12 | ADI-14391 (antibody, V domains shown, full-length IgG; also called Ab 58) VH: QVQLVESGGGLVQPGGSLRLSCAAAGFSFSNYAMSWVRQAPGKGLEWVAVISGNAGSTYYAESVKGRFTISRDNSKNTLHLQMNSLRGEDTAVYYCAKPPGIAVAGEYYWYFDLWGRGTLVTVSS VL: QVQLMQPPSVSVSPGQTARITCSGDALPRENAYWYQQKSGQAPVLVIYEDSKRPSGIPERFSGSSSGTMATLTITGAQVEDEADYYCYSTDTSAYHWVFGGGTKLTVL | – | no binding | 5.36 | 22.2
13 | ADI-24812 (antibody, V domains shown, full-length IgG) VH: EVQLVESGGGLVQPGGSLRLSCAASGFSFSTYAMSWVRQAPGKGLEWVSAISGGGGSTYYADSVKGRFTISRDNSKNTLYLQVNSLRAEDTAVYYCARGGYCSSDSCYPFDFWGQGTLVTVSS VL: QPVLTQPPSVSVSPGQTAMITCSGDALPKQYAYWYQQKPGQAPVLVIYKDSERPSGIPERFSGSSSGTTVTLTISGVQAEDEADYYCQSADNSGSYAVFGGGTQLTVL | 0.18 | no binding | 7.58 | –
14 | ADI-19427 (antibody, V domains shown, full-length IgG) VH: EVQLVESGGGLVKPGGSLRLSCAASGFTFSSYSMNWVRQAPGKGLEWVSSISSSSSFISYADSVKGRFTISRDSAKNSLYLQMNSLRAEDTAVYYCARDHPNWNGLAYFDYWGQGTLVTVSS VL: QSVLTQPPSISGAPGQRVTISCTGSSSNIGAGYDVQWHQQLPGTAPKLLIYGNSNRPSGVPDRFSGSKSGTSASLAITGLQAEDEADYYCQSYDSSLSGWVFGGGTKLTVL | 0.01 | no binding | 0.5 | 0.03
15 | ADI-19431 (antibody, V domains shown, full-length IgG) VH: EVQLVESGGGLVKPGGSLRLSCAASGFTFSSYSMNWVRQAPGKGLEWVSSISSSSSYIYYADSVKGRFTISRDNAKNSLYLQMNSLRAEDTAVYYCARELYDYVWGSYRDYWGQGTLVTVSS VL: QPGLTQPPSVSGAPGQRVTISCTGSSSNIGAGYDVHWYQQLPGTAPKLLIYGNSNRPSGVPDRFSGSKSGTSASLAITGLQAEDEADYYCQSYDSSLSGSVFGGGTKVTVL | 4.35 | no binding | 3.16 | 0.17
16 | ADI-24799 (antibody, V domains shown, full-length IgG) VH: EVQLVESGGGLVKPGGSLRLSCAASGFTFSSYSMNWVRQAPGKGLEWVSSISSSSSYIYYADSVKGRFTISRDNAKNSLYLQMNSLRAEDTAVYYCAREGRDGYNYYFDYWGQGTLVTVSS VL: QSVLTQPPSVSGAPGQRVTISCTGSSSNIGAGYDVHWYQQLPGTAPKLLIYGNSNRPSGVPDRFSGSKSGTSASLAITGLQAEDEADYYCQSYDSSLSGSVFGGGTKLTVL | 11.5 | no binding | 19 | –
17 | ADI-24859 (antibody, V domains shown, full-length IgG; also called Ab 419) VH: EVQLLESGGGLVKPGGSLRLSCAASGFTFSSYSMNWVRQAPGKGLEWVSSISSSSSYIYYADSVKGRFTISRDNAKNSLYLQMNSLRAEDTAVYYCARDGSPINWVSPFPFDYWGQGTLVTVSS VL: QPVLTQPPSVSGAPGQRVTISCTGSSSNIGAGYDVHWYQQLPGTAPKLLIYGNSNRPSGVPDRFSGSKSGTSASLAITGLQAEDEADYYCQSYDSSLSGSVFGGGTQLTVL | 0.58 | no binding | 4.95 | –
18 | ADI-14336 (antibody, V domains shown, full-length IgG; also called Ab 4) VH: EVQLLESGGEVKKPGASVKVSCKASGYTFTNYGISWVRQAPGQGLEWMGWISAYNGNTNYAQKLQGRVTMTTDTSTSTAYMEVRRLRSDDTAVYYCAREPPVIAAGDFQHWGQGTLVTVSS VL: DIVMTQTPLSLPVTLGQPASISCRSSQSLVHSDTNIYLSWFQQRPGQSPRRLIYKVSNRDSGVPDRFSGSGSGTDFTLRISRVEAEDVGVYYCMQGTHWPPDFGQGTRLEIK | 0.07 | – | 2.65 | 0.09
19 | ADI-19448 (antibody, V domains shown, full-length IgG) VH: EVQLLESGGGLVKPGGSLRLSCAASGFTFSSYSMNWVRQAPGKGLEWVSSISSSSSYIYYADSVKGRFTISRDNAKNSLYLQMNSLRAEDTAVYYCARELLDPGIAAAGFDYWGQGTLVTVSS VL: QSVLTQPPSVSGAPGQRVTISCTGSSSNIGAGYDVHWYQQLPGTAPKLLIYGNSNRPSGVPDRFSGSKSGTSASLAITGLQAEDEADYYCQSYDSSLSVNYVFGTGTKVTVL | 9.64 | no binding | 5.58 | –
